{
  "source": "patent US20120190612A1",
  "about": "“METHODS OF TREATMENT” (CRC FOR ASTHMA AND AIRWAYS LTD., priority 2009, published 2012)",
  "key": {"[1]": {"test_system": "lymphatic endothelial cells", "description": "The MTT assay was performed as described above. […] To differentiate between antiproliferative and cytotoxic effects, cells were counted 72 hrs after treatment with various concentrations of lamstatin."}, "[2]": {"test_system": "outer nodule cells (LAM)", "assay": "Tube formation of LAM outer nodule cells", "type": "cell-based", "conditions": "5 hrs", "experimental": "(§1) To assess formation of tubular structures, 48 well plates were coated with 130 μL Matrigel® (BD Bioscience), which was solidified at 37° C. over 45 min. 2×10^4 HMVEC-LLy cells in complete EBM-2 (500 μL) were seeded per well and allowed to attach for 30 min, before lamstatin, tumstatin, CP17 or vehicle was added to the wells. Photos were taken with a Kodak Digital Camera every 2 hrs. Tube formation peaked at 24 hrs, at which time tubular structures were further analysed to determine length (in pixels) and number of tubes per high power field (HPF) area (px^2). The HPF was divided in nine regions of equal size and tubes per region were counted. Mean and SEM were calculated and plotted.\nThe inventors then analysed tube formation in LAM nodule cells and found only the outer nodule cells responded with pseudo-tube formation. Assay for tube formation was performed as described above in Example 2. Photos were taken at 2, 3, 4, 5 and 24 hrs after seeding. Lamstatin was added directly after seeding to inhibit prior tube formation. Tube formation peaked at 5 hrs and after 24 hrs no tubular structures were observed (both treated and untreated) (data not shown)."}, "[3]": {"test_system": "fibroblasts (3567)", "assay": "MTT cell viability assay, fibroblasts", "type": "cell-based", "conditions": "increasing concentrations, 72 hrs"}, "[4]": {"test_system": "epithelial cells (A549)", "assay": "MTT cell viability assay, epithelial cells", "type": "cell-based", "conditions": "increasing concentrations, 72 hrs"}, "[5]": {"test_system": "human primary lymphatic endothelial cells (HMVEC-LLy cells)", "assay": "MTT cell viability assay, lymphatic endothelial cells", "type": "cell-based", "experimental": "To determine the function of lamstatin, human primary lymphatic endothelial cells (HMVEC-LLy cells) were exposed to various concentrations of lamstatin and an MTT assay was performed. As a comparison, commercially available tumstatin was used. Specifically, to assess cell viability 4×10^3 HMVEC-LLy cells were seeded per well in 100 μl complete EBM-2 media (with bullet kit, Lonza) and incubated for 2 hrs at 37° C., 5% CO2. After this period lamstatin, tumstatin and respective vehicles (1 nM EDTA, pH 3.0) were prepared in complete EBM-2 as serial dilutions in a separate plate and added. […] After 6 h of further incubation cells were lysed overnight with 10% SDS/0.01 M HCl and measured the following day in a plate reader at 570 nm.\nThe MTT assay was performed as described above."}, "[6]": {"biological_target": "T1, integrin β3 (Homo sapiens, UniProt P05106)", "T1 construct": "endogenous in cells; host or cells: HMVEC-LLy (human primary lymphatic endothelial cells)", "T1 sequence (P05106 27-788)": "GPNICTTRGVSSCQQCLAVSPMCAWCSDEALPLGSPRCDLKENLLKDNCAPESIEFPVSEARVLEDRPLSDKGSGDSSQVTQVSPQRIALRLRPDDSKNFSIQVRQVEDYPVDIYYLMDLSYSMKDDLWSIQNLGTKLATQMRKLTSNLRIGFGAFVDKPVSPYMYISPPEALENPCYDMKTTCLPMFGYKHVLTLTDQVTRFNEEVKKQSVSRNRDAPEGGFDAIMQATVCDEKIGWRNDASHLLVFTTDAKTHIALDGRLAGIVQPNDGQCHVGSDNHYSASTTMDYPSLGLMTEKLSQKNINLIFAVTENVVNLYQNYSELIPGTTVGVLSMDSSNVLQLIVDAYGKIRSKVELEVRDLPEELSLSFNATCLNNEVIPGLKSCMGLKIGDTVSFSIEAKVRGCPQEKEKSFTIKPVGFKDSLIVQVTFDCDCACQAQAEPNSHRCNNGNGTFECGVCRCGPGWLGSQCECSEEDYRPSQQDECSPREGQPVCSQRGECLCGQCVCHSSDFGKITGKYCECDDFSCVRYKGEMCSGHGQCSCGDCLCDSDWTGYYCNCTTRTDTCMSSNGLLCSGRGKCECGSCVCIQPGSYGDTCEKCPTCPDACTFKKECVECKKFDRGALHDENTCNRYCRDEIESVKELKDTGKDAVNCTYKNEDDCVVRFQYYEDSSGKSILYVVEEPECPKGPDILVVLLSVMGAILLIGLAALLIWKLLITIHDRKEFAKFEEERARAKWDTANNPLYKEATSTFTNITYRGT", "T1 sequence (P06756 31-889 limits assumed, further chain)": "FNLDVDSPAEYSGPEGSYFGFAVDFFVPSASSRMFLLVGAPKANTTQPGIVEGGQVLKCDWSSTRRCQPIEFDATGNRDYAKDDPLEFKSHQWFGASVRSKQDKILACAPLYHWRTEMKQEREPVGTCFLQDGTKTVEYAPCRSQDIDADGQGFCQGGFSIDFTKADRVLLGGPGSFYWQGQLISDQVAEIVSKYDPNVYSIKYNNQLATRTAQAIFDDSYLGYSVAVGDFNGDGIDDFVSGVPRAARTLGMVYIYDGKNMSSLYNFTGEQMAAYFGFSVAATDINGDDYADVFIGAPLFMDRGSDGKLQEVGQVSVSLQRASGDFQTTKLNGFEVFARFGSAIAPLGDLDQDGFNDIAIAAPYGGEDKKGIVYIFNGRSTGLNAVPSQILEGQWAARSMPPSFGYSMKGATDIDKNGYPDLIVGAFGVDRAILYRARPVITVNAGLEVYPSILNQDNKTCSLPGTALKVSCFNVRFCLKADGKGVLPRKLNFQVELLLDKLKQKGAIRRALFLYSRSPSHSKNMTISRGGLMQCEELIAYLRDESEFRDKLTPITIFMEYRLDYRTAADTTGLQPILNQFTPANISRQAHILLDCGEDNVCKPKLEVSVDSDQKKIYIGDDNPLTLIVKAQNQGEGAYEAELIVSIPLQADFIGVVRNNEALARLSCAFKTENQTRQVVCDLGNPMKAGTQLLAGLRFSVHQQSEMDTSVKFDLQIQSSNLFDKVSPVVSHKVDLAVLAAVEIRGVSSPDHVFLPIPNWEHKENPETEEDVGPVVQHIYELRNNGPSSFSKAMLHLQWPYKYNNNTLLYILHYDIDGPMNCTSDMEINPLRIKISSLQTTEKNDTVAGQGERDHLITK", "T1 sequence (P06756 891-1048 limits assumed, further chain)": "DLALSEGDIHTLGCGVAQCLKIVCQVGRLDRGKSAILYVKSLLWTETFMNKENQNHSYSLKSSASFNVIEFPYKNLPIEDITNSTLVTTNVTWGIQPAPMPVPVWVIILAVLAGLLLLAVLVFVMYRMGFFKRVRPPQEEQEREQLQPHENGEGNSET", "assay": "Integrin binding of HMVEC-LLy cells on antibody-coated plates", "type": "cell-based", "conditions": "lamstatin 10 μg/ml, CP17 5 μM, 1 h", "experimental": "(§2) Antibodies for integrin α5 (MAB1956Z; MAB1953Z), integrin β1 (MAB2253Z) and integrin β3 (MAB1957Z) (all Millipore, USA) were coated to 96 well tissue culture plates (Nunc, USA) at a concentration of 10 μg/mL overnight at 4° C. in sterile coating buffer (50 mM Na2CO3, 50 mM NaHCO3, pH 9.6). Plates then were blocked with sterile 1% BSA/PBS for 1 h at 37° C. and washed twice with EBM-2 MV (Lonza, Basel, Switzerland). MMVEC-LLy cells were carefully removed from culture flasks with non-enzymatic detachment solution (Trevigen, Md., USA) and washed twice with EBM-2 (Lonza, Basel, Switzerland). Volume was adjusted to a cell concentration of 50,000 cells/100 μL and divided into aliquots for treatment with recombinant lamstatin (10 μg/ml), CP17 (5 μM) or vehicle (1 nM EDTA, pH 3.5) only. Cells were then transferred to the antibody-coated plates and incubated for 1 h at 37° C. Wells were then washed with HANKS twice to remove unbound cells and fixed with 4% paraformaldehyde (in PBS) for 15 min at room temperature. Wells thereafter were photographed with an Olypmus CAMEDIA C-4000 camera mounted to an Olympus CK2 microscope. Pictures were divided into 25 segments and cells of 5 center-near quadrants were counted and averaged. […] Using a similar approach, the inventors observed no expression of integrin α4 on the surface of HMVEC-LLy cells (data not shown)."}, "[7]": {"biological_target": "T2, integrin α5 (Homo sapiens, UniProt P05556+P08648)", "T2 construct": "endogenous in cells; host or cells: HMVEC-LLy (human primary lymphatic endothelial cells)", "T2 sequence (P08648 42-894 limits assumed)": "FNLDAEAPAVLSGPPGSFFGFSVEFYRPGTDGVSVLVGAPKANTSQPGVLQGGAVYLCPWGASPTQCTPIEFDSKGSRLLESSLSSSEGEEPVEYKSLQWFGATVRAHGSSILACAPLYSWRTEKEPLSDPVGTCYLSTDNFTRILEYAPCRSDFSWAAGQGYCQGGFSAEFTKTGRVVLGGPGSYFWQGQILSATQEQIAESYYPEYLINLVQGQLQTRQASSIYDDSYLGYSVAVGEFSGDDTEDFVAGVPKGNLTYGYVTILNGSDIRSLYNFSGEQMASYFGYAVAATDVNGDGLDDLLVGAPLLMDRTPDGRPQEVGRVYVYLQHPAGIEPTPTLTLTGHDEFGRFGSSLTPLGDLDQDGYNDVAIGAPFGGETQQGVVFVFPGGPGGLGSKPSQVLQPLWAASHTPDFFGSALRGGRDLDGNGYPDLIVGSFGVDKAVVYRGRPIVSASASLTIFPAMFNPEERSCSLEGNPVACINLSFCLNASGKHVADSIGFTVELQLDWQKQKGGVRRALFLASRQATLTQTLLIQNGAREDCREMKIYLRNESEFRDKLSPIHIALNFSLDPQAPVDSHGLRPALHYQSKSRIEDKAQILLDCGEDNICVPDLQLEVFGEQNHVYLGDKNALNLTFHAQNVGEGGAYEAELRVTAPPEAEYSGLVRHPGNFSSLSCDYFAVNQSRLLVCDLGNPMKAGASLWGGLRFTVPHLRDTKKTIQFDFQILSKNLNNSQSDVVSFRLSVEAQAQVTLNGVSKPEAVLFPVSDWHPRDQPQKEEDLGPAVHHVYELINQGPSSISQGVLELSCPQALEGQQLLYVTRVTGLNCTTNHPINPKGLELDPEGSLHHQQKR", "T2 sequence (P08648 895-1049 limits assumed)": "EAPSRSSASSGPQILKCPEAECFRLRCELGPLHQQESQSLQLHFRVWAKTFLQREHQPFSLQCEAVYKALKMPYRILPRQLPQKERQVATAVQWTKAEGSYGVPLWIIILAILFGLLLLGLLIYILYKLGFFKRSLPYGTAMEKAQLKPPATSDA", "T2 sequence (P05556 21-798)": "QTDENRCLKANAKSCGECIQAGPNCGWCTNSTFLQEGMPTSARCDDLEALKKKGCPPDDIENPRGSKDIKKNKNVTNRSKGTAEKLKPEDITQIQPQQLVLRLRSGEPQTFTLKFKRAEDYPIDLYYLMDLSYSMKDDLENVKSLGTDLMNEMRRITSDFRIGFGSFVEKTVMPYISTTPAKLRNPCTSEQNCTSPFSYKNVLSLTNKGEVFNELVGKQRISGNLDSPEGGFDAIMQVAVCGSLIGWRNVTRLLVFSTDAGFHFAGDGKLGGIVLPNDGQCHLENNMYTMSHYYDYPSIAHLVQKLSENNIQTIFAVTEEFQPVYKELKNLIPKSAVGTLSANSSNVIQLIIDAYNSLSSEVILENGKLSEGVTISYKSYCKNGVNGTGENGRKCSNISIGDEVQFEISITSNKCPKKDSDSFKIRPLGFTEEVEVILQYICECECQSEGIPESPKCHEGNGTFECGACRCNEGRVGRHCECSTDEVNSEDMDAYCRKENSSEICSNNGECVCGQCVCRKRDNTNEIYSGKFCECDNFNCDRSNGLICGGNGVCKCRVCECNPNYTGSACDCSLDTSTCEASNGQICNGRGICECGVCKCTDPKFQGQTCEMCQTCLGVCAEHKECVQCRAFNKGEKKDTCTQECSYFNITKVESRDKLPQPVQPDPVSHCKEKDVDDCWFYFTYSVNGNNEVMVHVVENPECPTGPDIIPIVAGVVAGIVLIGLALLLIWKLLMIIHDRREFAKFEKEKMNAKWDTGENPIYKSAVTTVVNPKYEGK", "assay": "Integrin binding of HMVEC-LLy cells on antibody-coated plates", "type": "cell-based", "conditions": "lamstatin 10 μg/ml, CP17 5 μM, 1 h", "experimental": "as §2"}, "[8]": {"biological_target": "T3, integrin β1 (Homo sapiens, UniProt P05556+P08648)", "T3 construct": "endogenous in cells; host or cells: HMVEC-LLy (human primary lymphatic endothelial cells)", "T3 sequence (P05556 21-798)": "as above", "T3 sequence (P08648 42-894 limits assumed)": "as the sequence (P08648 42-894 limits assumed) above", "T3 sequence (P08648 895-1049 limits assumed)": "as the sequence (P08648 895-1049 limits assumed) above", "assay": "Integrin binding of HMVEC-LLy cells on antibody-coated plates", "type": "cell-based", "conditions": "lamstatin 10 μg/ml, CP17 5 μM, 1 h", "experimental": "as §2"}, "[9]": {"test_system": "HMVEC-LLy cells", "assay": "Migration towards a VEGF-D gradient (FluoroBlok transwell)", "type": "cell-based, human", "conditions": "24 hrs, n=1; VEGFD alone 42.000 RFU", "experimental": "FluoroBlok BioCoat 24-well inserts (BD Bioscience) were seeded with 4×10^4 HMVEC-LLy cells in 750 μL DMEM with 0.1% BSA, 1% antibiotics and 25 mM HEPES and incubated for 1 hr. The bottom well was filled with 500 μL medium (as described above) with or without 10 ng/mL VEGF-D (R&D Systems) as well as various concentrations of lamstatin, tumstatin, CP17 or vehicle. Additionally, top wells were loaded with inhibitors to match the bottom well concentration. According to manufacturer's instructions cells were allowed to migrate for 24 hrs before bottom media was removed. Thereafter the underside of the transwell with the migrated cells was washed twice with HANKS buffer and placed in a 4 μg/mL calcein (HANKS) solution for 90 min at 37° C. Signal was read with a bottom read fluorescence microplate reader at 485/515 nm (excitation/emission)."}, "[10]": {"biological_target": "T4, integrins α5 and β1 (Homo sapiens, UniProt P05556+P08648)", "T4 construct": "endogenous in cells; host or cells: HMVEC-LLy (human primary lymphatic endothelial cells)", "assay": "Integrins mediating binding of lymphatic endothelial cells (data not shown)", "type": "cell-based", "conditions": "HMVEC-LLy in vitro, different from HUVECs"}, "[11]": {"test_system": "HMVEC-LLy cells", "assay": "Real-time impedance (xCellgenix) cell attachment and proliferation", "type": "cell-based, human", "experimental": "HMVEC-LLy cells were treated with lamstatin and cell attachment and proliferation were measured in realtime using the xCellgenix system (Roche). This system measures a cell index factor, representing impedance mediated by cells. Gold electrodes on the well bottom measure this impedance and the more cells attach to the bottom the higher the impedance (cell index). This measurement allows for detecting early events after treatment such as detachment (e.g. through cell death) or inhibition of proliferation and reduction of cell number.\nA Xcellgenix gold coated microtiter plate was seeded with 5×10^3 cells (HMVEC-LLy) per well and incubated in 100 μL complete EBM-2 for 24 hrs prior to treatment. In fresh media, serial dilutions of lamstatin or vehicle (1 nM EDTA, pH 3.0) were prepared. Cell culture supernatant was removed and replaced by 100 μL fresh serially diluted lamstatin. The plate was locked into the Xcellgenix recorder and a signal of impedance recorded at 5 min intervals for 6 hrs, and subsequently every 60 min."}, "[12]": {"test_system": "HMVEC-LLy cells", "assay": "Tube formation on Matrigel", "type": "cell-based, human", "conditions": "24 hrs, n=2", "experimental": "as §1"}},
  "data": [
    {"molecule": "lamstatin: NC1 domain of the α5 chain of collagen type IV; human amino acid sequence SEQ ID NO:1; recombinant (protein, listed as Homo sapiens) GFLITRHSQTTDAPQCPQGTLQVYEGFSLLYVQGNKRAHGQDLGTAGSCLRRFSTMPFMFCNINNVCNFASRNDYSYWLSTPEPMPMSMQPLKGQSIQPFISRCAVCEAPAVVIAVHSQTIQIPHCPQGWDSLWIGYSFMMHTSAGAEGSGQALASPGSCLEEFRSAPFIECHGRGTCNYYANSYSFWLATVDVSDMFSKPQSETLKAGDLRTRISRCQVCMKRT", "values": [
      {"measurement": "viable cells (trypan blue exclusion)", "setting": "[1]", "result": "no cytotoxic effect"},
      {"measurement": "cell count", "setting": "[1]; 10 μg/mL, 72 hrs after treatment, data not shown", "result": "anti-proliferative effect was observed"},
      {"measurement": "tube length", "setting": "[2]", "result": "significantly inhibited"},
      {"measurement": "tube number (tubes per square pixel)", "setting": "[2]", "result": "significantly inhibited"},
      {"measurement": "cell viability (MTT)", "setting": "[3]", "result": "only lymphatic endothelial cells responded"},
      {"measurement": "cell viability (MTT)", "setting": "[4]", "result": "only lymphatic endothelial cells responded"},
      {"measurement": "cell viability (MTT)", "setting": "[5]; 24 hrs, data not shown", "result": "reduced cell viability"},
      {"measurement": "cell viability (MTT)", "setting": "[5]; increasing concentrations, 72 hrs", "result": "decreased cell viability"},
      {"measurement": "cell binding in presence of monoclonal antibody against integrin β3", "setting": "[6]", "result": "no effect on binding"},
      {"measurement": "cell binding in presence of monoclonal antibody against integrin α5", "setting": "[7]", "result": "significantly inhibited cell binding"},
      {"measurement": "cell binding in presence of monoclonal antibody against integrin β1", "setting": "[8]", "result": "significantly inhibited cell binding"},
      {"measurement": "migration towards a VEGFD gradient", "setting": "[9]", "result": 10000, "unit": "RFU"},
      {"measurement": "predominant integrins that mediate the binding of lymphatic endothelial cells", "setting": "[10]", "result": "integrins α5 and β1"},
      {"measurement": "time required to reach a threshold cell index of 1, compared with vehicle control", "setting": "[11]; 10 μg/mL", "result": "double"},
      {"measurement": "cell attachment", "setting": "[11]; after 55 min of treatment, various concentrations", "result": "reduction in cell attachment"},
      {"measurement": "numbers of tube-like structures formed", "setting": "[12]", "result": "reduce in a concentration related manner"}
    ]}
  ]
}
